B1: MtFae1a (Thermothelomyces thermophilus ATCC 42464) (protein)
chain: ASLQEVTEFGDNPTNIQMYIYVPDQLDTNPPVIVALHPCGGSAQQWFSGTQLPSYADDNGFILIYPSTPHMSNCWDIQNPDTLTHGQGGDALGIVSMVNYTLDKHSGDSSRVYAMGFSSGGMMTNQLAGSYPDVFEAGAVYSGVAFGCAAGAESATPFSPNQTCAQGLQKTAQEWGDFVRNAYAGYTGRRPRMQIFHGLEDTLVRPQCAEEALKQWSNVLGVELTQEVSGVPSPGWTQKIYGDGTQLQGFFGQGIGHQSTVNEQQLLQWFGLI
notes: secreted from Pichia pastoris X33, glycosylated

Tests used:
[1] = tested on: T1, C=COC(=O)/C=C/c1ccc(O)c(OC)c1; experiment: transesterification rate by HPLC, nonlinear Michaelis-Menten fit; type: biochemical, Thermothelomyces thermophilus; details: acyl donor, 200 mM prenol, n-hexane:t-butanol:100 mM MOPS-NaOH pH 6.0 19.8:74.7:5.5 v/v/v microemulsion, 40 °C, 8 h, error = SE
T1 construct: secreted, over-expressed in low-background M. thermophila C1 host
Description: transesterification rate by HPLC, nonlinear Michaelis-Menten fit on FaeA2

[2] = substrate: C=COC(=O)/C=C/c1ccc(O)c(OC)c1; experiment: as above; type: biochemical, Thermothelomyces thermophilus; details: acyl donor, 200 mM prenol, n-hexane:t-butanol:100 mM MOPS-NaOH pH 6.0 53.4:43.4:3.2 v/v/v microemulsion, 40 °C, 8 h, error = SE
Description: transesterification rate by HPLC, nonlinear Michaelis-Menten fit on MtFae1a

Molecule	Km [1]	Km [2]
FaeA2 (Thermothelomyces thermophilus)	46.5 (18.1) mM	
B1		81.2 (22.3) mM
